The values below come from doi:10.1101/2021.08.24.457482 (bioRxiv, 2021).

To fix the notation:
B1: modified truncated sema3A (T-sema3A) (ligand)
chain: NYQNGKNNVPRLKLSYKEMLESNNVITFNGLANSSSYHTFLLDEERSRLYVGAKDHIFSFDLVNIKDFQKIVWPVSYTRRDECKWAGKDILKECANFIKVLKAYNQTHLYACGTGAFHPICTYIEIGHHPEDNIFKLENSHFENGRGKSPYDPKLLTASLLIDGELYSGTAADFMGRDFAIFRTLGHHHPIRTEQHDSRWLNDPKFISAHLISESDNPEDDKVYFFFRENAIDGEHCGKATHARIGQICKNDFGGHRSLVNKWTTFLKARLICSVPGPNGIDTHFDELQDVFLMNFKDPKNPVVYGVFTTSSNIFKGSAVCMYSMSDVRRVFLGPYAHRDGPNYQWVPYQGRVPYPRPGTCPSKTFGGFDSTKDLPDDVITFARSHPAMYNPVFPMNNRPIVIKTDVNYQFTQIVVDRVDAEDGQYDVMFIGTDVGTVLKVVSIPKETWYDLEEVLLEEMTVFREPTAISAMELSTKQQQLYIGSTAGVAQLPLHR
B2: CD72 fused with a V5 epitope tag, expressed in U87MG-ΔNRP-1-CD72+ cells (receptor)
chain: MAEAITYADLRFVKAPLKKSISSRLGQDPGADDDGEITYENVQVPAVLGVPSSLASSVLGDKAAVKSEQPTASWRAVTSPAVGRILPCRTTCLRYLLLGLLLTCLLLGVTAICLGVRYLQVSQQLQQTNRVLEVTNSSLRQQLRLKITQLGQSAEDLQGSRRELAQSQEALQVEQRAHQAAEGQLQACQADRQKTKETLQSEEQQRRALEQKLSNMENRLKPFFTCGSADTCCPSGWIMHQKSCFYISLTSKNWQESQKQCETLSSKLATFSEIYPQSHSYYFLNSLLPNGGSGNSYWTGLSSNKDWKLTDDTQRTRTYAQSSKCNKVHKTWSWWTLESESCRSSLPYICEMTAFRFPD
B3: Sema3A fused in frame with alkaline phosphatase (sema3A-AP) (ligand)
chain: NYQNGKNNVPRLKLSYKEMLESNNVITFNGLANSSSYHTFLLDEERSRLYVGAKDHIFSFDLVNIKDFQKIVWPVSYTRRDECKWAGKDILKECANFIKVLKAYNQTHLYACGTGAFHPICTYIEIGHHPEDNIFKLENSHFENGRGKSPYDPKLLTASLLIDGELYSGTAADFMGRDFAIFRTLGHHHPIRTEQHDSRWLNDPKFISAHLISESDNPEDDKVYFFFRENAIDGEHSGKATHARIGQICKNDFGGHRSLVNKWTTFLKARLICSVPGPNGIDTHFDELQDVFLMNFKDPKNPVVYGVFTTSSNIFKGSAVCMYSMSDVRRVFLGPYAHRDGPNYQWVPYQGRVPYPRPGTCPSKTFGGFDSTKDLPDDVITFARSHPAMYNPVFPMNNRPIVIKTDVNYQFTQIVVDRVDAEDGQYDVMFIGTDVGTVLKVVSIPKETWYDLEEVLLEEMTVFREPTAISAMELSTKQQQLYIGSTAGVAQLPLHRCDIYGKACAECCLARDPYCAWDGSACSRYFPTAKRRTRRQDIRNGDPLTHCSDLHHDNHHGHSPEERIIYGVENSSTFLECSPKSQRALVYWQFQRRNEERKEEIRVDDHIIRTDQGLLLRSLQQKDSGNYLCHAVEHGFIQTLLKVTLEVIDTEHLEELLHKDDDGDGSKTKEMSNSMTPSQKVWYRDFMQLINHPNLNTMDEFCEQVWKRDRKQRRQRPGHTPGNSNKWKHLQENKKGRNRRTHEFERAPRSV

Series [1] deals with the molecule itself. Description: SDS-PAGE with and without reducing agent, western blot. (In general: Immunoblotting shows a protein as a band on a membrane.)
Series [2] has as its target B3. Description: alkaline phosphatase fusion binding to cells.
In series [3] the target is neuropilin-1 (NRP-1) on parental U87MG cells (human (endogenous in U87MG), UniProt O14786 22-923). Description: alkaline phosphatase fusion binding to cells.
Chain of neuropilin-1 (NRP-1) on parental U87MG cells (O14786 22-923): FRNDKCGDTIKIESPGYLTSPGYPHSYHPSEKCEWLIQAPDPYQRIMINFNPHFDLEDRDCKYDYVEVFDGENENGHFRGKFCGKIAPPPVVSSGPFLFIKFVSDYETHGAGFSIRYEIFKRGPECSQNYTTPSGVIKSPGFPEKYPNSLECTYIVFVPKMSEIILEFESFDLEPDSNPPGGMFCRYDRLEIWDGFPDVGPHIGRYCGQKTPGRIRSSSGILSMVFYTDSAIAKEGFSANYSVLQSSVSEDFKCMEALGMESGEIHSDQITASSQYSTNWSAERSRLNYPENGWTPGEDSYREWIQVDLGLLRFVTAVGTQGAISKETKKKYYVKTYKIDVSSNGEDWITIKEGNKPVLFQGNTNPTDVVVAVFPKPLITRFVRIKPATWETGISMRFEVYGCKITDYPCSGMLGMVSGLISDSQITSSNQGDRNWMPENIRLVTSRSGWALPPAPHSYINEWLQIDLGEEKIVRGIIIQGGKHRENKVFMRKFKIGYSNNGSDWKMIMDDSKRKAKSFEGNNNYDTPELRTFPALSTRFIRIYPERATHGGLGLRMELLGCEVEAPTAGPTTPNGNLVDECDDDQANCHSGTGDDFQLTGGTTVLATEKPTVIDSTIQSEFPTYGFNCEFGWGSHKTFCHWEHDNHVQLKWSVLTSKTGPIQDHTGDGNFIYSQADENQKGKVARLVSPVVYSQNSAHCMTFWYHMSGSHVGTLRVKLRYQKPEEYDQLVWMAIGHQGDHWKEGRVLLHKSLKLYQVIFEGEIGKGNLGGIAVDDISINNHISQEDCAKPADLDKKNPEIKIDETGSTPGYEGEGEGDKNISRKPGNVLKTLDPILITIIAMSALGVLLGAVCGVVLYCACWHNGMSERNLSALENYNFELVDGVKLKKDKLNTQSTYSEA

For orientation: stoichiometry N means the number of molecules, sites or subunits per partner or assembly. On to B1, for which the “stoichiometry N” value in series [1] was 2.
The Kd is the equilibrium constant for the complex coming apart. B2 displayed a Kd in series [2] of about 7.62 nM.
B3: in series [3], the dissociation constant Kd was about 4.73 nM.
